In patent US20190085043A1, “FUSION PROTEINS FOR TREATING A METABOLIC SYNDROME” (SANOFI, priority 2012, published 2019):

Experiments:
human GLP-1 receptor = biological target: T1, human GLP-1 receptor (Homo sapiens, UniProt P43220); assay: In vitro cellular assay for human GLP-1 receptor efficacy (cAMP HTRF, HEK-293); assay type: cell-based; settings: HEK-293 cells stably expressing human GLP-1 receptor, read-out: hGLP-1R cAMP EC50
T1 construct: expressed in transfected cells
Description: The cAMP content of the cells was determined using a kit from Cisbio Corp. (cat. no. 62AM4PEC) based on HTRF (Homogenous Time Resolved Fluorescence).
The cAMP content of cells was determined using a kit from Cisbio Corp. (cat. no. 62AM4PEC) based on HTRF (Homogenous Time Resolved Fluorescence). For preparation, cells were split into T175 culture flasks and grown overnight to near confluence in medium (DMEM/10% FBS). Medium was then removed and cells washed with PBS lacking calcium and magnesium, followed by proteinase treatment with accutase (Sigma-Aldrich cat. no. A6964). Detached cells were washed and resuspended in assay buffer (1×HBSS; 20 mM HEPES, 0.1% BSA, 2 mM IBMX) and cellular density determined. They were then diluted to 4×10^5cells/mL and 25 μL-aliquots dispensed into the wells of 96-well plates. For measurement, 25 μL of test compound in assay buffer was added to the wells, followed by incubation for 30 minutes at room temperature.

MAP kinase ERK1/2 = assay: ERK1/2 phosphorylation In-Cell Western (pERK ICW) in CHO cells overexpressing human FGFR1c plus KLB; assay type: cell-based; settings: ERK1/2 phosphorylation Thr202/Tyr204
Description: FIG. 1C-1 to FIG. 1C-3) Dose dependent in vitro activation of the downstream effector ERK. Activation of the downstream effector of FGF signaling, the MAP kinase ERK1/2, was determined via In-Cell Western assay in CHO cells stably overexpressing human FGFR1c and KLB using an antibody directed against the ERK1/2 phosphorylated amino acid residues threonine 202 and tyrosine 204.
(§1) CHO Flp-In cells (Invitrogen, Darmstadt, Germany) stable expressing the human FGFR1c together with human beta-Klotho (KLB) were used for FGF-21 receptor autophosphorylation assay using In-Cell Western. In order to determine the receptor autophosphorylation level, 2×10^4 cells/well were seeded into 96-well plates and grown for 48 h. Cells were serum starved with serum-free medium Ham's F-12 Nutrient Mix with GlutaMAX (Gibco, Darmstadt, Germany) for 3-4 h. The cells were subsequently treated with increasing concentrations of either human FGF-21, the indicated FGF-21 fusion protein, or other peptides for 5 min at 37° C. After incubation the medium was discarded and the cells were fixed in 3.7% freshly prepared para-formaldehyde for 20 min. Cells were permeabilized with 0.1% Triton-X-100 in PBS for 20 min. Blocking was performed with Odyssey blocking buffer (LICOR, Bad Homburg, Germany) for 2 h at room temperature. Anti-pFGFR Tyr653/654 (New England Biolabs, Frankfurt, Germany) was incubated overnight at 4° C. After incubation of the primary antibody, cells were washed with PBS+0.1% Tween20. The secondary anti-Mouse 800CW antibody (LICOR, Bad Homburg, Germany) was incubated for 1 h at room temperature. Subsequently cells were washed again with PBS+0.1% Tween20 and infrared dye signals were quantified with an Odyssey imager (LICOR, Bad Homburg, Germany). Results were normalized by quantification of DNA with TO-PRO3 dye (Invitrogen, Karlsruhe, Germany). FIG. 1B-1 to FIG. 1B-4 show the results from an ICW with CHO cells overexpressing human FGFR1c plus KLB.
To assess the activation of a downstream effector of FGFR signalling by FGF-21-GLP-1RA fusion proteins the phosphorylation of MAP kinases ERK1/2 were analysed. The same ICW protocol as described above was used, simply the primary antibody was replaced by anti-phospho-p44/42 MAPK (Erk1/2) (Thr202/Tyr204) (New England Biolabs, Frankfurt, Germany). FIG. 1C-1 to FIG. 1C-3 show the results from ICW with CHO cells overexpressing human FGFR1c plus KLB and detection of ERK1/2 phosphorylation.

human FGFR1c plus KLB = human FGFR1c plus KLB (Homo sapiens, UniProt P11362+Q86Z14); assay: FGF-21 receptor autophosphorylation In-Cell Western (pFGFR ICW) in CHO cells; assay type: cell-based; settings: CHO cells overexpressing human FGFR1c plus KLB, FGFR autophosphorylation
human FGFR1c plus KLB, sequence (P11362 22-822): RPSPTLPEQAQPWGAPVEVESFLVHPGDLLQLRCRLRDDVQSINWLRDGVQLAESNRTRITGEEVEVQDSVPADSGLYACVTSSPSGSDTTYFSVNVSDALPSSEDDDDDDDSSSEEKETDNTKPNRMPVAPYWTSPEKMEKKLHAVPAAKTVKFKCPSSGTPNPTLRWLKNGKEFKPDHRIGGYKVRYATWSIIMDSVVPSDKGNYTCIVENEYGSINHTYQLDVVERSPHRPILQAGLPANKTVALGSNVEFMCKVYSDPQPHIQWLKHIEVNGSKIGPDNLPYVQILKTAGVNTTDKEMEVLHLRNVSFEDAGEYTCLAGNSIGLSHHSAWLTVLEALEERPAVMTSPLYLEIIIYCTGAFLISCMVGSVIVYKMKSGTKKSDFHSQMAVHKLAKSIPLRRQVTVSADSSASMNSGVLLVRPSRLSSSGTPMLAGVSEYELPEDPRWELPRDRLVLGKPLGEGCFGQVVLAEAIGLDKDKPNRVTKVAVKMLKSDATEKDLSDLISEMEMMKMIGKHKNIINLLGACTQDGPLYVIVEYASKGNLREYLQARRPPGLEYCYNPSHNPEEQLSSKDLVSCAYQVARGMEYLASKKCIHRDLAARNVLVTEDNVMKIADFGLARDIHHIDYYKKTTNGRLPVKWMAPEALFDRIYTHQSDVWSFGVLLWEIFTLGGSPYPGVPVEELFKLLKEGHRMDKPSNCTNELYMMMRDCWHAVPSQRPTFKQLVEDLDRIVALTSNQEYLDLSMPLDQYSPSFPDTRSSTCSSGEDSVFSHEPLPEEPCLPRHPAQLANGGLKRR
human FGFR1c plus KLB, sequence (Q86Z14 whole entry): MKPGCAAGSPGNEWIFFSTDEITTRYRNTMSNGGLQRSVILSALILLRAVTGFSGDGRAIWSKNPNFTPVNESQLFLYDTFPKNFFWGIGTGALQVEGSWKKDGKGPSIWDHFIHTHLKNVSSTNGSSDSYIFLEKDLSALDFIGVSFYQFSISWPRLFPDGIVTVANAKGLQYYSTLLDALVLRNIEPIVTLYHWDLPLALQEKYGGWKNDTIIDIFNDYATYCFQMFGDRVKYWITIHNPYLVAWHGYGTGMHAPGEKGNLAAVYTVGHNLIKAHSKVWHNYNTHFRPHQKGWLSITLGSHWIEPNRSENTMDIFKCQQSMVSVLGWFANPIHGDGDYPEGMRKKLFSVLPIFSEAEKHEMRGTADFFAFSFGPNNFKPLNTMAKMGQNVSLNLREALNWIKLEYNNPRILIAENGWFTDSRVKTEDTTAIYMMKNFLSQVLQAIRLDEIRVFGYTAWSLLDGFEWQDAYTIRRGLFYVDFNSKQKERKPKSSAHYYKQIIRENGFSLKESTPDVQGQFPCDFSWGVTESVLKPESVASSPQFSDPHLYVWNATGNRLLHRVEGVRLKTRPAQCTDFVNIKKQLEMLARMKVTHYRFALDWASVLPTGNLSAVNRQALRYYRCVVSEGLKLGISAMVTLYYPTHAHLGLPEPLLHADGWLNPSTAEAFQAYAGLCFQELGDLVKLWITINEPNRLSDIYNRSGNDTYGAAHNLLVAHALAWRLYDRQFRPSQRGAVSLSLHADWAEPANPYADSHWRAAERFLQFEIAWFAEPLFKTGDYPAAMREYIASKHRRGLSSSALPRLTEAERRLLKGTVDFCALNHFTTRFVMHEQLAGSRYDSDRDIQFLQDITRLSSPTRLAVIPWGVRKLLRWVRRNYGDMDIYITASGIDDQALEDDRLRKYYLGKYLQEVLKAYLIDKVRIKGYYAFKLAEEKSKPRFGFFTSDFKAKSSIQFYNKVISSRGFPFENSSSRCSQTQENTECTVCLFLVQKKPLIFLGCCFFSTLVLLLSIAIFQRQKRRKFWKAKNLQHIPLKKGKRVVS
Description: FIG. 1B-1 to FIG. 1B-4) The FGF induced FGFR autophosphorylation was measured via a specific and highly sensitive In-Cell Western (ICW) in CHO cells stably overexpressing human FGFR1c together with human betaKlotho (KLB). In-Cell Western assay is an immunocytochemical assay usually performed in microplate format. Target-specific primary antibodies and infrared-labelled secondary antibodies are used to detect target proteins in fixed cells, and fluorescent signal from each well is quantified (e.g. the In-Cell Western assay from LI-COR Biosciences, USA).
The cellular efficacy of FGF-21 or FGF-21 fusion proteins was measured using a specific and highly sensitive In-Cell Western (ICW) assay. The ICW assay is an immunocytochemical assay usually performed in microplate format.
as §1

ob/ob mice = assay: Treatment of ob/ob mice by chronic infusion (Alzet pumps, 11 days); assay type: in vivo, mouse; settings: for Relative body weight change (%): after 11 days of treatment
Description: Female ob/ob mice (B6.V-LEP OB/J, age of 9 weeks) were obtained from Charles Rivers Laboratories (Sulzfeld, Germany). Mice were randomly assigned to treatment or vehicle groups, and the randomization was stratified by body weight and fed blood glucose levels. The animals were housed in groups of 8 at 23° C. and on a 12 h light-dark cycle. All experimental procedures were conducted according to German Animal Protection Law. Mice were fed ad libitum with standard rodent chow during the drug treatment periods. Body weight and food intake was recorded every other day throughout the study.
Ob/ob mice were treated with vehicle (PBS), 0.03, 0.1, 0.3, and 1.0 mg·kg^−1·day^−1 recombinant Exenatide-IEGR-FGF-21 (SEQ ID NO: 15) via chronic infusion by Alzet pumps (type 1004) over 11 days.
At the end of the study liver weight and liver triglycerides were analysed.
Two days before pump implantation and after 11 days of treatment blood glucose was measured by tail tip bleeding under fed conditions. As shown in FIGS. 10 and 11 blood glucose levels of the chronic infused mice were decreased dose-dependently with highest effect at the dosage of 1.0 mg·kg^−1·day^−1 recombinant fusion protein.

[1] = 0.03, 0.1, 0.3 and 1 mg/kg, end of study

T1 sequence (P43220 24-463): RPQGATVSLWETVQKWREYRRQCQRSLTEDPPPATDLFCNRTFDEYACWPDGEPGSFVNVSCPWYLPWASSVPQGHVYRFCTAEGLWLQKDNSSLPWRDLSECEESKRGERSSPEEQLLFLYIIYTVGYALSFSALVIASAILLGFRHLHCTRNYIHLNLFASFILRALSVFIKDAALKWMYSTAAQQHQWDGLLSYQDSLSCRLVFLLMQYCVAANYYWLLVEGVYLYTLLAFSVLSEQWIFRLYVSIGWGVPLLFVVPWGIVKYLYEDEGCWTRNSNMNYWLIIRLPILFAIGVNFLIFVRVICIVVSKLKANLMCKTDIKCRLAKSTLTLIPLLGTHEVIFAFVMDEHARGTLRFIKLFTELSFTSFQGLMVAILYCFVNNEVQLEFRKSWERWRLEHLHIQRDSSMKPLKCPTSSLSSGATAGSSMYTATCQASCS

Exenatide-GG-ABD-GG-FGF21: fusion protein, GG-ABD-GG = linker
EC50 (human GLP-1 receptor): 15.9 pM

Exenatide-APSCPAS-FGF21: fusion protein, linker based on PAS sequence plus Cystein for potential modification
EC50 (MAP kinase ERK1/2): 10900 pM | EC50 (human FGFR1c plus KLB): 193000 pM | EC50 (human GLP-1 receptor): 13.2 pM

Exenatide-GGGRR-FGF21: fusion protein, GGGRR protease cleavage site linker
EC50 (MAP kinase ERK1/2): 980 pM | EC50 (human FGFR1c plus KLB): 7400 pM | EC50 (human GLP-1 receptor): 7.7 pM

Exenatide-IEGR-FGF21: fusion protein exenatide - Factor Xa cleavage site IEGR linker - FGF21
EC50 (MAP kinase ERK1/2): 400 pM | EC50 (human FGFR1c plus KLB): 1900 pM | Relative body weight change (%) (ob/ob mice; 0.03 mg/kg, chronic infusion): +6.6% | Relative body weight change (%) (ob/ob mice; 0.1 mg/kg, chronic infusion): +1.1% | Relative body weight change (%) (ob/ob mice; 0.3 mg/kg, chronic infusion): −2.6% | Relative body weight change (%) (ob/ob mice; 1 mg/kg, chronic infusion): −17.8% | highest reduction of body weight (ob/ob mice; 1 mg/kg, chronic infusion): 17.8% | body weight (ob/ob mice; 0.03, 0.1, 0.3 and 1 mg/kg, chronic infusion): dose dependent decrease | liver triglycerides (ob/ob mice; [1]): dose dependent decrease | total liver weight (ob/ob mice; [1]): dose dependent decrease | blood glucose (ob/ob mice; 0.03, 0.1, 0.3 and 1 mg/kg, fed, after 11 days of chronic infusion): dose dependent decrease | EC50 (human GLP-1 receptor): 4 pM

Exenatide-APSPAS-FGF21: fusion protein, linker based on PAS sequence
EC50 (MAP kinase ERK1/2): 270 pM | EC50 (human FGFR1c plus KLB): 4100 pM | EC50 (human GLP-1 receptor): 3 pM

Lixisenatide-IEGR-FGF21: fusion protein lixisenatide - Factor Xa cleavage site - FGF21
EC50 (MAP kinase ERK1/2): 1000 pM | EC50 (human FGFR1c plus KLB): 3100 pM | EC50 (human GLP-1 receptor): 3.8 pM

Exenatide-FGF21: fusion protein of exenatide and human FGF-21 His29-Ser209 without linker
EC50 (MAP kinase ERK1/2): 510 pM | EC50 (human FGFR1c plus KLB): 1300 pM | EC50 (human GLP-1 receptor): 4.1 pM

Exenatide-FGF21-GG-ABD: fusion protein, GG-ABD = linker (albumin binding domain)
EC50 (MAP kinase ERK1/2): 89900 pM | EC50 (human FGFR1c plus KLB): 79800 pM | EC50 (human GLP-1 receptor): 7.96 pM

Lixisenatide-FGF21: fusion protein of lixisenatide and FGF21 without linker
EC50 (MAP kinase ERK1/2): 240 pM | EC50 (human FGFR1c plus KLB): 3700 pM | EC50 (human GLP-1 receptor): 3.7 pM

Exenatide-GGGGS-His-GGGGS-ABD-GG-FGF21: fusion protein, GGGGS-His-GGGGS-ABD-GG = linker
EC50 (MAP kinase ERK1/2): 4970 pM | EC50 (human GLP-1 receptor): 2.54 pM

Exenatide-FGF21-GG-ABD-GG-FGF21: fusion protein, GG-ABD-GG = linker
EC50 (MAP kinase ERK1/2): 4340 pM | EC50 (human FGFR1c plus KLB): 37300 pM | EC50 (human GLP-1 receptor): 21.6 pM

Exenatide-GSGS-FGF21: fusion protein, GSGS = linker
EC50 (MAP kinase ERK1/2): 530 pM | EC50 (human FGFR1c plus KLB): 19100 pM | EC50 (human GLP-1 receptor): 7.2 pM

Exenatide-IEGQ-FGF21: fusion protein, IEGQ = linker (mutated/defect Factor Xa cleavage site)
EC50 (MAP kinase ERK1/2): 790 pM | EC50 (human FGFR1c plus KLB): 35400 pM | EC50 (human GLP-1 receptor): 6.1 pM
